Results from patent publication US20120245092A1 (ECOLE NORMALE SUPERIEURE DE LYON, published 2012).
Each block holds one binder with its values, some of them ahead of it.

Legend:
[1] = target: T1, CNA beta C ter-CaM (amino acids 378 to 423), two-hybrid prey (human, UniProt P16298 378-423); assay: yeast two-hybrid mating assay
T1 construct: also called CnAβCter CaM
Procedure: (§1) The 5′ end of RH6 (upper case) matches part of the HA epitope tag and the 5′ ends of RH4, RH3 and RH7 (upper case) match the 5′ extremity of the ADH terminator. The PCR reactions was performed using pCMV-SPORT6-CnAβ as a template. […] MB210a was co-transformed with the PCR products and EcoRI/XhoI-cut pJG4-5. The prey plasmids were retrieved from the transformants (21) and the homologous recombination products were checked by sequencing. MB210a was also transformed with positive and negative controls of interaction. […] The yeast two-hybrid mating assays were performed as described (21).

[2] = target: T2, CNA beta C ter-delta 1 (amino acids 378 to 500), two-hybrid prey (human, UniProt P16298 378-500); assay: yeast two-hybrid mating assay
T2 construct: also called CnAβCter Δ1
Procedure: as §1

[3] = target: T3, CNA beta C ter-delta 2 (amino acids 378 to 456), two-hybrid prey (human, UniProt P16298 378-456); assay: yeast two-hybrid mating assay
T3 construct: also called CnAβCter Δ2
Procedure: as §1

[4] = target: T4, CNA construct CNA11, two-hybrid prey (Mus musculus (Mouse), UniProt P48453 384-495); assay: yeast two-hybrid assay (FIG. 14)
T4 construct: not shown: HA-pJG4-5 prey fusion moiety

[5] = target: T5, NS5A-TP2 (two-hybrid prey) (human, UniProt Q7Z4H3 1-204); assay: yeast two-hybrid assay (FIG. 9)
T5 sequence: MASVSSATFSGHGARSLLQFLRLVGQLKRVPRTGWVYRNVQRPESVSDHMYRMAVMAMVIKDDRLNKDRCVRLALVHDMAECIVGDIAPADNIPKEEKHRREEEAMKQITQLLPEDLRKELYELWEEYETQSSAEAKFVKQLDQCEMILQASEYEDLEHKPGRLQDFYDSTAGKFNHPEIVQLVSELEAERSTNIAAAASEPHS
Source text: (§2) CNA beta and gamma C-Terminal fragments and NS5A-TP2 were cloned in three different vectors (pSH18-34, pJK103 and pRB18-40). These three plasmids differ from each other in the level of sensitivity of their promoter, pSH18-34 having the highest sensitivity and pRB18-40 having the lowest.

[6] = target: T6, CNAβ C-terminal fragment (calcineurin A beta clone selected from the testes cDNA library, two-hybrid prey) (human, UniProt P16298 378-524); assay: yeast two-hybrid mating assay
T6 construct: Truncated protein; The truncations made from it start at amino acid 378; also called CNA beta C-terminal fragment
Procedure: as §1

[7] = target: T7, CNAγ C-terminal fragment (calcineurin A gamma clone selected from the testes cDNA library, two-hybrid prey) (human, UniProt P48454 365-512); assay: yeast two-hybrid mating assay
T7 construct: Truncated protein; also called CNA gamma C-terminal fragment
T7 sequence (P48454 365-512): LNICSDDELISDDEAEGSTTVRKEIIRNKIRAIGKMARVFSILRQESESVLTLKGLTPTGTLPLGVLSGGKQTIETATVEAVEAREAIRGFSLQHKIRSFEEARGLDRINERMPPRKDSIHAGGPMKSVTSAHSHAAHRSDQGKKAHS
Procedure: as §1

[8] = target: T6, CNAβ C-terminal fragment (calcineurin A …); assay: yeast two-hybrid assay (FIG. 9)
Source text: as §2

[9] = target: T7, CNAγ C-terminal fragment (calcineurin A …); assay: yeast two-hybrid assay (FIG. 9)
Source text: as §2

[10] = target: T8, CNA construct CNA9, two-hybrid prey (Rattus norvegicus (Rat), UniProt P20651 342-419); assay: yeast two-hybrid assay, higher sensitivity (FIG. 14)
T8 construct: not shown: HA-pJG4-5 prey fusion moiety

[11] = target: T9, CNA construct CNA8, two-hybrid prey (Homo sapiens (Human), UniProt P16298 1-388); assay: as above
T9 construct: not shown: HA-pJG4-5 prey fusion moiety

[12] = target: T5, NS5A-TP2 (two-hybrid prey); assay: as above
[13] = target: T10, CNA construct CNA4, two-hybrid prey (Homo sapiens (Human), UniProt P16298 414-524); assay: as above
T10 construct: not shown: HA-pJG4-5 prey fusion moiety

[14] = target: T4, CNA construct CNA11, two-hybrid prey; assay: as above
[15] = target: T11, CNA construct CNA10, two-hybrid prey; assay: as above
T11 construct: not shown: HA-pJG4-5 prey fusion moiety

[16] = target: T12, CNA construct CNA7, two-hybrid prey (Homo sapiens (Human), UniProt P16298 1-413); assay: as above
T12 construct: not shown: HA-pJG4-5 prey fusion moiety

[17] = target: T13, CNA construct CNA3, two-hybrid prey (Homo sapiens (Human), UniProt P16298 384-524); assay: as above
T13 construct: not shown: HA-pJG4-5 prey fusion moiety

binding result [1]: no binding
binding result [2]: binds
binding result [3]: no binding
binding result [4]: binds
B1: LexA-R5G42 fusion protein (peptide aptamer R5G42 as two-hybrid bait) (designed binder, not shown: large carriers)
chain: MVKQIESKTAFQEALDAAGDKLVVVDFSATWCGPSAVTFAVCALGPCKMIKPFFHSLSEKYSNVIFLEVDVDDCQDVASECEVKCMPTFQFFKKGQKVGEFSGANKEKLEATINELV
notes: also called LexA-R5G42 bait protein

binding result [5]: no binding
binding result [4]: binds
B2: R5G42 mutant C2 (LexA fusion, two-hybrid bait) (designed binder)
chain: MVKQIESKTAFQEALDAAGDKLVVVDFSATWCGPSAVTFAVCALGPCKMIKLFFHSLSEKYSNVIFLEVDVDDCQDVASECEVKCMPTFQFFKKGQKVGEFSGANKEKLEATINELV
notes: One amino acid change against R5G42; also called R5G42-C2; not shown: LexA fusion partner (pGILDA bait)

binding result [6]: no binding
binding result [7]: no binding
B3: LexA-R7G44 fusion protein (peptide aptamer R7G44 as two-hybrid bait) (designed binder)
chain: MVKQIESKTAFQEALDAAGDKLVVVDFSATWCGPHQSTIGVAEFGPCKMIKPFFHSLSEKYSNVIFLEVDVDDCQDVASECEVKCMPTFQFFKKGQKVGEFSGANKEKLEATINELV
notes: Control aptamer; not shown: LexA (E. coli), fusion partner from pGILDA

binding result [8]: no binding
binding result [9]: no binding
binding result [4]: binds
B4: R5G42 mutant N9 (LexA fusion, two-hybrid bait) (designed binder)
chain: MVKQIESKTAFQEALDAAGDKLVVVDFSAAWCGPSAVTFAVCALGPCKMIKPFFHSLSEKYSNVIFLEVDVDDCQDVASECEVKCMPTFQFFKKGQKVGEFSGANKEKLEATINELV
notes: One amino acid change against R5G42; also called R5G42-N9; not shown: LexA fusion partner (pGILDA bait)

binding result [5]: no binding
binding result [4]: binds
B5: R5G42 mutant C7 (LexA fusion, two-hybrid bait) (designed binder)
chain: MVKQIESKTAFQEALDAAGDKPVVVDFSATWCGPSAVTFAVCALGPCKMIKPFFHSLSEKYSNVIFLEVDVDDCQDVASECEVKCMPTFQFFKKGQKVGEFSGANKEKLEATINELV
notes: One amino acid change against R5G42; also called R5G42-C7; not shown: LexA fusion partner (pGILDA bait)

binding result [5]: no binding
binding result [4]: binds
B6: R5G42 mutant C8 (LexA fusion, two-hybrid bait) (designed binder)
chain: MVKQIESKTAFQEALDAAGDKLVVVDFSATWCGPSAVTIAVCALGPCKMIKPFFHSLSEKYSNVIFLEVDVDDCQDVASECEVKCMPTFQFFKKGQKVGEFSGANKEKLEATINELV
notes: One amino acid change against R5G42; also called R5G42-C8; not shown: LexA fusion partner (pGILDA bait)

binding result [10]: no binding
binding result [11]: no binding
binding result [12]: no binding
binding result [13]: no binding
binding result [14]: no binding
binding result [15]: no binding
binding result [16]: no binding
binding result [17]: no binding
B7: LexA-R5G52 fusion protein (peptide aptamer R5G52 as two-hybrid bait) (designed binder)
chain: MVKQIESKTAFQEALDAAGDKLVVVDFSATWCGPIQSPPESPTGGPCKMIKPFFHSLSEKYSNVIFLEVDVDDCQDVASECEVKCMPTFQFFKKGQKVGEFSGANKEKLEATINELV
notes: also called LexA-R5G52 bait protein; not shown: LexA (E. coli), fusion partner from pGILDA
